The target in assay [1] is T1, RNA polymerase core enzyme (subunits α2ββ'ω) (UniProt P0A7Z4 1-329; P0A8V2 1-1342; P0A8T7 1-1407; P0A800 1-91). As to the kind of experiment: BLI; Octet RED96, 303 K; 0.5 μM Biotin-DinB immobilised on streptavidin biosensors, blocked with biocytin; RNAP core as analyte in 2-fold serial dilution; 50 mM KPi pH 6.5, 150 mM NaCl, 25 mM MgCl2, 1 mM TCEP, 0.5% BSA; double referencing. The following applies: both partners purified. (In BLI a coated tip is dipped into the sample, and binding shifts an interference pattern.)

Assay [2] concerns the target T1, RNA polymerase core enzyme (subunits …). The experiment in a line: BLI; Octet RED96, 303 K; 0.5 μM Biotin-DinBΔPAD immobilised on streptavidin biosensors, blocked with biocytin; RNAP core as analyte in 2-fold serial dilution; 50 mM KPi pH 6.5, 50 mM NaCl, 25 mM MgCl2, 1 mM TCEP, 0.25% BSA; double referencing. The following applies: both partners purified.

B1: DNA polymerase IV (DinB), DinB^1-351 (enzyme, E. coli, UniProt Q47155 1-351, looked up)
chain: MRKIIHVDMDCFFAAVEMRDNPALRDIPIAIGGSRERRGVISTANYPARKFGVRSAMPTGMALKLCPHLTLLPGRFDAYKEASNHIREIFSRYTSRIEPLSLDEAYLDVTDSVHCHGSATLIAQEIRQTIFNELQLTASAGVAPVKFLAKIASDMNKPNGQFVITPAEVPAFLQTLPLAKIPGVGKVSAAKLEAMGLRTCGDVQKCDLVMLLKRFGKFGRILWERSQGIDERDVNSERLRKSVGVERTMAEDIHHWSECEAIIERLYPELERRLAKVKPDLLIARQGVKLKFDDFQQTTQEHVWPRLNKADLIATARKTWDERRGGRGVRLVGLHVTLLDPQMERQLVLGL
modifications: biotin (EZ-Link NHS-PEG4-Biotin, conditions favouring the amino-terminal α-amino group) in the BLI assay; isotope-labelled ([U-2H,15N] or MALVI^proS methyl-labelled) in the NMR titrations
notes: E. coli DNA polymerase IV (DinB), residues 1-351, from pET28b(+)-DinB (Genscript); No removal of the His6 tag is described for DinB and DinBΔPAD; also called full-length DinB; MALVI^proS-DinB; source: E. coli BL21 (λDE3), purified (Ni2+-Histrap, heparin, SEC)
What is called Kd is the equilibrium constant for the complex coming apart. A low value points to tighter binding. Molecule B1 came in with a Kd in assay [1] of 6.4 ± 0.07 nM.

B2: DinBΔPAD (DinB^1-230) (domain or fragment, E. coli, UniProt Q47155 1-230, looked up)
chain: MRKIIHVDMDCFFAAVEMRDNPALRDIPIAIGGSRERRGVISTANYPARKFGVRSAMPTGMALKLCPHLTLLPGRFDAYKEASNHIREIFSRYTSRIEPLSLDEAYLDVTDSVHCHGSATLIAQEIRQTIFNELQLTASAGVAPVKFLAKIASDMNKPNGQFVITPAEVPAFLQTLPLAKIPGVGKVSAAKLEAMGLRTCGDVQKCDLVMLLKRFGKFGRILWERSQGID
modifications: biotin (EZ-Link NHS-PEG4-Biotin, conditions favouring the amino-terminal α-amino group) in the BLI assay; [U-2H,15N]-labelled in the NMR titration
notes: E. coli DNA polymerase IV (DinB), residues 1-230 (Fingers, Palm, Thumb); stop codon introduced at amino acid 231; also called Biotin-DinBΔPAD; source: E. coli BL21 (λDE3), purified (Ni2+-Histrap, heparin, SEC)
In the case of B2, the Kd in assay [2] worked out at 5.9 ± 0.05 nM.

For the origin of these results see publication PMC10359629, “Thumb-domain dynamics modulate the functional repertoire of DNA-Polymerase IV (DinB)” (Nucleic Acids Research, 2022).
